Tests used:
[1] = biological target: Recombinantly-expressed FolRα extracellular domain (Acro Biosystems) (Homo sapiens, UniProt P15328); assay: SPR
[2] = biological target: cynomolgus monkey FolRα overexpressed on CHO cells (Macaca fascicularis, UniProt A0A2K5U044); assay: flow cytometry on cells

Kd [1]: 2.3 nM
binding result [2]: binds
B1: anti-FolRα antibody SP8166 (antibody, V domains shown)
VH: EVQLVESGGGLVQPGGSLRLSCAASGFNIRTQSIHWVRQAPGKGLEWIGDIFPIDGITDYADSVKGRFTISADTSKNTAYLQMNSLRAEDTAVYYCARGSWSWPSGMDYYLDYWGQGTLVTVSS
VL: not shown

Source: article PMC9890132 (Molecular Cancer Therapeutics, 2022)
